US10428140B2, “Anti-EphA4 antibody” (EISAI R&D MANAGEMENT CO., LTD., priority 2015, dated 2019)

T1: human EphA10 (Homo sapiens, UniProt Q5JZY3)
T1 construct: a protein of the extracellular region of each human Eph receptor fused with the SEAP protein and the His tag; made in house; host or cells: Expi293F cells (culture supernatant)
T1 sequence (Q5JZY3 34-565 limits assumed): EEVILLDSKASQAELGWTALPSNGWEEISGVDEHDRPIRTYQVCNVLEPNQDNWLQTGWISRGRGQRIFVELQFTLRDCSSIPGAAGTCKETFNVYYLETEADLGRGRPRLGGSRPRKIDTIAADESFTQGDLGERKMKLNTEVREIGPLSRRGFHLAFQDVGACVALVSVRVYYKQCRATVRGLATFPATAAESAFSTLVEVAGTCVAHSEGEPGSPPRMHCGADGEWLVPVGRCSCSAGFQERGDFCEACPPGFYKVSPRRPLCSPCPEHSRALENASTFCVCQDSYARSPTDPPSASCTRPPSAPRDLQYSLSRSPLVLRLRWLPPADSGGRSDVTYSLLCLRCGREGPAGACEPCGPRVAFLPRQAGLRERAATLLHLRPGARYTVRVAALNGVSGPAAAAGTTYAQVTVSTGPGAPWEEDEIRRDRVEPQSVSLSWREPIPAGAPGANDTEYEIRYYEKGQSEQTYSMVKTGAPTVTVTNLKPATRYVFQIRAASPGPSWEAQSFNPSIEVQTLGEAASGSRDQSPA

T2: human EphA3 (Homo sapiens, UniProt P29320)
T2 construct: a protein of the extracellular region of each human Eph receptor fused with the SEAP protein and the His tag; made in house; host or cells: Expi293F cells (culture supernatant)
T2 sequence (P29320 21-541 limits assumed): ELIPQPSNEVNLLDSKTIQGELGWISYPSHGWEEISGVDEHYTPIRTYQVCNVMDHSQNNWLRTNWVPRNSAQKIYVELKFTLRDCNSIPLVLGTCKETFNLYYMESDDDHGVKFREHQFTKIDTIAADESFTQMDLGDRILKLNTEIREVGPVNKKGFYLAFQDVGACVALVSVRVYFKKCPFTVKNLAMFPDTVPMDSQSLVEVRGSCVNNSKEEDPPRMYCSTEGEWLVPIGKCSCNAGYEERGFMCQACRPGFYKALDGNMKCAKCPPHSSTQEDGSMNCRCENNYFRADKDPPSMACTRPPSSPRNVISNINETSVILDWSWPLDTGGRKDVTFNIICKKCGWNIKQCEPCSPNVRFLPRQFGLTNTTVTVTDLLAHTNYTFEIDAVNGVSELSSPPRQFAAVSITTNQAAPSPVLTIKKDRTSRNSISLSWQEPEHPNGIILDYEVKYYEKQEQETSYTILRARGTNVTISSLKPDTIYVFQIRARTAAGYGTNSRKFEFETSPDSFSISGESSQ

T3: human EphB4 (Homo sapiens, UniProt P54760)
T3 construct: a protein of the extracellular region of each human Eph receptor fused with the SEAP protein and the His tag; made in house; host or cells: Expi293F cells
T3 sequence (P54760 16-539 limits assumed): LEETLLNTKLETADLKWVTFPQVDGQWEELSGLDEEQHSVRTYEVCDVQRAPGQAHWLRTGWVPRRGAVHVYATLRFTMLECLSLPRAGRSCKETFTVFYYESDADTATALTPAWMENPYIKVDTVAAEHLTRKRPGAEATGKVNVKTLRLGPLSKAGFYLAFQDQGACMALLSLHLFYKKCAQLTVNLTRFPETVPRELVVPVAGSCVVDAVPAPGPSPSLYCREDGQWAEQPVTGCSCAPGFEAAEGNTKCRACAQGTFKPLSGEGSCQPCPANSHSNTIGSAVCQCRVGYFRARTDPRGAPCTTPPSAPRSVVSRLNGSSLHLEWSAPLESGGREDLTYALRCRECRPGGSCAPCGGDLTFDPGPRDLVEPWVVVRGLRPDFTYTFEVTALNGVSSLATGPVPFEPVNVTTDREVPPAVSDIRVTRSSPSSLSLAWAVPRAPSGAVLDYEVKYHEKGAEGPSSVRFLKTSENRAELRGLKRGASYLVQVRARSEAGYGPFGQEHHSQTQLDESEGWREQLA


Columns and labels:
Test in all cases: Selectivity ELISA of humanized antibodies for human Eph receptor
Type in all cases: binding
human EphA10 = biological target: T1, human EphA10; settings: coated protein 1 nM
Summary of the method: (§1)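 Read-out is A450 after TMB development stopped with 1N H2SO4. Plates bore anti-His-captured human Eph extracellular region-SEAP-His proteins at 1 nM final, made in Expi293F cells. Humanized antibody binding ran 1 h at room temperature before HRP-labeled anti-IgG detection.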

human EphA3 = biological target: T2, human EphA3; settings: coated protein 1 nM
Summary of the method: as §1

human EphA4 = biological target: T4, human EphA4 (Homo sapiens, UniProt P54764); settings: coated protein 1 nM; reference set to 100%
T4 construct: made in house; not restated for the human SEAP-His protein
Summary of the method: as §1

human EphB4 = biological target: T3, human EphB4; settings: coated protein 1 nM
Summary of the method: as §1

T4 sequence (P54764 20-547): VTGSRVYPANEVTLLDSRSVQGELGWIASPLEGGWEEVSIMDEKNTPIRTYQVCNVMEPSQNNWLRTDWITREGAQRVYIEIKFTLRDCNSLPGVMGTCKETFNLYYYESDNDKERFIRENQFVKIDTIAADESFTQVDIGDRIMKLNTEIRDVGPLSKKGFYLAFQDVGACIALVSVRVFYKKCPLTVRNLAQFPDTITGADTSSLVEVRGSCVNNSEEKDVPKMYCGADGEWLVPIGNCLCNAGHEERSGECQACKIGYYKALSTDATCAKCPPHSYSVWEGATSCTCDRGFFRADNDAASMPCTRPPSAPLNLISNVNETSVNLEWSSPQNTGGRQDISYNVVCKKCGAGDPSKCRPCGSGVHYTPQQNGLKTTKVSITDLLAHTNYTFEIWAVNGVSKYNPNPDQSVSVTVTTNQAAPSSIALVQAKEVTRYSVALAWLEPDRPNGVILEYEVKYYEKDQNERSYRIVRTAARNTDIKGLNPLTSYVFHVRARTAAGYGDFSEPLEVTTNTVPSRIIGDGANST

Row | hEphA10-SEAP-: absorbance at 450 nm, percentage with respect to hEphA4-SEAP-His as 100% (human EphA10) [%] | hEphA3-SEAP-: absorbance at 450 nm, percentage with respect to hEphA4-SEAP-His as 100% (human EphA3) [%] | hEphA4-SEAP-: absorbance at 450 nm, percentage with respect to hEphA4-SEAP-His as 100% (human EphA4) [%] | hEphB4-SEAP-: absorbance at 450 nm, percentage with respect to hEphA4-SEAP-His as 100% (human EphB4) [%] | Molecule
1 | 6.4 | 6.8 | 100 | 6.5 | 94 (antibody, V domains shown, constant regions without entry; synthetic humanized antibody light chain variable region sequence; synthetic humanized antibody heavy chain variable region sequence) VL: EIVMTQSPATLSVSPGERATLSCRASENIYRNLAWYQQKPGQSPRLLIYAATNLADGIPARFSGSGSGTEYTLTISSLQSEDFAVYYCQHFWGTPWTFGQGTKVEIK VH: QVQLVQSGSELKKPGASVKVSCKASGYTFTDYSMHWVRQAPGQGLKWMGWINTETGEPTYAQGFTGRFVFSLDTSVSTAYLQISSLKAEDTAVYYCARIPLYYYGSRYWYFDVWGQGTTVTVSS
2 | 5.3 | 5.6 | 100 | 5.5 | 71 (antibody, V domains shown, synthetic humanized antibody heavy chain variable region sequence; synthetic humanized antibody light chain variable region sequence) VH: QIQLVQSGSELKKPGASVKVSCKASGYTFTDYSMHWVRQAPGQGLKWMGWINTETGEPTYAQGFTGRFVFSLDTSVSTAYLQISSLKAEDTAVYYCARIPLYYYGSRYWYFDVWGQGTTVTVSS VL: EIVMTQSPATLSVSPGERATLSCRASENIYRNLAWYQQKPGQSPRLLIYAATNLADGIPARFSGSGSGTEYTLTISSLQSEDFAVYYCQHFWGTPWTFGQGTKVEIK
3 | 5.2 | 5.5 | 100 | 5.4 | 140 (antibody, V domains shown, synthetic humanized antibody heavy chain variable region sequence; synthetic humanized antibody light chain variable region sequence) VH: QVQLVQSGSELKKPGASVKVSCKASGYTFTDYSMHWVRQAPGQGLKWMGWINTETGEPTYAQGFTGRFVFSLDTSVSTAYLQISSLKAEDTAVYYCARIPLYYYGSRYWYFDVWGQGTTVTVSS VL: DIQMTQSPSSLSASVGDRVTITCRASENIYRNLAWYQQKPGKAPKLLVYAATNLADGVPSRFSGSGSGTDYTLTISSLQPEDFATYYCQHFWGTPWTFGQGTKVEIK
4 | 4.5 | 4.8 | 100 | 4.6 | 95 (antibody, V domains shown, constant regions without entry; synthetic humanized antibody light chain variable region sequence; synthetic humanized antibody heavy chain variable region sequence) VL: EIVMTQSPATLSVSPGERATLSCRASENIYRNLAWYQQKPGQSPRLLIYAATNLADGIPARFSGSGSGTEYTLTISSLQSEDFAVYYCQHFWGTPWTFGQGTKVEIK VH: QVQLVQSGSELKKPGASVKVSCKASGYTFTDYSMHWVRQAPGQGLEWMGWINTETGEPTYADDFKGRFVFSLDTSVSTAYLQISSLKAEDTAVYYCARIPLYYYGSRYWYFDVWGQGTTVTVSS
5 | 5.5 | 5.9 | 100 | 5.7 | 139 (antibody, synthetic humanized antibody heavy chain variable region sequence; synthetic humanized antibody light chain variable region sequence; synthetic antibody constant region sequence) VH: QVQLVQSGSELKKPGASVKVSCKASGYTFTDYSMHWVRQAPGQGLEWMGWINTETGEPTYAQGFTGRFVFSLDTSVSTAYLQISSLKAEDTAVYYCARIPLYYYGSRYWYFDVWGQGTTVTVSS VL: DIQMTQSPSSLSASVGDRVTITCRASENIYRNLAWYQQKPGKAPKLLVYAATNLADGVPSRFSGSGSGTDYTLTISSLQPEDFATYYCQHFWGTPWTFGQGTKVEIK ASTKGPSVFPLAPSSRSTSESTAALGCLVKDYFPEPVTVSWNSGALTSGVHTFPAVLQSSGLYSLSSVVTVPSSNFGTQTYTCNVDHKPSNTKVDKTVERKSCVECPPCPAPPAAAPSVFLFPPKPKDTLMISRTPEVTCVVVDVSHEDPEVQFNWYVDGVEVHNAKTKPREEQFNSTFRVVSVLTVVHQDWLNGKEYKCKVSNKGLPAPIEKTISKTKGQPREPQVYTLPPSREEMTKNQVSLTCLVKGFYPSDIAVEWESNGQPENNYKTTPPMLDSDGSFFLYSKLTVDKSRWQQGNVFSCSVMHEALHNHYTQKSLSLSPG
6 | 5.3 | 5.5 | 100 | 5.5 | 96 (antibody, V domains shown, constant regions without entry; synthetic humanized antibody light chain variable region sequence; synthetic humanized antibody heavy chain variable region sequence) VL: EIVMTQSPATLSVSPGERATLSCRASENIYRNLAWYQQKPGQSPRLLIYAATNLADGIPARFSGSGSGTEYTLTISSLQSEDFAVYYCQHFWGTPWTFGQGTKVEIK VH: QVQLVQSGSELKKPGASVKVSCKASGYTFTDYSMHWVRQAPGQGLKWMGWINTETGEPTYADDFKGRFVFSLDTSVSTAYLQISSLKAEDTAVYYCARIPLYYYGSRYWYFDVWGQGTTVTVSS
7 | 5.6 | 5.8 | 100 | 5.7 | 73 (antibody, V domains shown, synthetic humanized antibody heavy chain variable region sequence; synthetic humanized antibody light chain variable region sequence) VH: QIQLVQSGSELKKPGASVKVSCKASGYTFTDYSMHWVRQAPGQGLKWMGWINTETGEPTYADDFKGRFVFSLDTSVSTAYLQISSLKAEDTAVYYCARIPLYYYGSRYWYFDVWGQGTTVTVSS VL: EIVMTQSPATLSVSPGERATLSCRASENIYRNLAWYQQKPGQSPRLLIYAATNLADGIPARFSGSGSGTEYTLTISSLQSEDFAVYYCQHFWGTPWTFGQGTKVEIK
